In patent US20120040938A1, “GLUCOCORTICOID RECEPTOR ALLELES AND USES THEREOF” (SHRINERS HOSPITAL FOR CHILDREN, priority 2009, published 2012):

B1: allele 66-63: Full-length human GR with substitutions N72D, V321A, R460K, F749G (protein, UniProt P04150 1-777, looked up, variant N72D V321A R460K F749G)
Glucocorticoid receptor: MDSKESLTPGREENPSSVLAQERGDVMDFYKTLRGGATVKVSASSPSLAVASQSDSKQRRLLVDFPKGSVSDAQQPDLSKAVSLSMGLYMGETETKVMGNDLGFPQQGQISLSSGETDLKLLEESIANLNRSTSVPENPKSSASTAVSAAPTEKEFPKTHSDVSSEQQHLKGQTGTNGGNVKLYTTDQSTFDILQDLEFSSGSPGKETNESPWRSDLLIDENCLLSPLAGEDDSFLLEGNSNEDCKPLILPDTKPKIKDNGDLVLSSPSNVTLPQVKTEKEDFIELCTPGVIKQEKLGTVYCQASFPGANIIGNKMSAISAHGVSTSGGQMYHYDMNTASLSQQQDQKPIFNVIPPIPVGSENWNRCQGSGDDNLTSLGTLNFPGRTVFSNGYSSPSMRPDVSSPPSSSSTATTGPPPKLCLVCSDEASGCHYGVLTCGSCKVFFKRAVEGQHNYLCAGKNDCIIDKIRRKNCPACRYRKCLQAGMNLEARKTKKKIKGIQQATTGVSQETSENPGNKTIVPATLPQLTPTLVSLLEVIEPEVLYAGYDSSVPDSTWRIMTTLNMLGGRQVIAAVKWAKAIPGFRNLHLDDQMTLLQYSWMFLMAFALGWRSYRQSSANLLCFAPDLIINEQRMTLPCMYDQCKHMLYVSSELHRLQVSYEEYLCMKTLLLLSSVPKDGLKSQELFDEIRMTYIKELGKAIVKREGNSSQNWQRFYQLTKLLDSMHEVVENLLNYCFQTFLDKTMSIEGPEMLAEIITNQIPKYSNGNIKKLLFHQK
B2: allele 66-62: Full-length human GR with substitutions N72D, V321A, N766S (protein, UniProt P04150 1-777, looked up, variant N72D V321A N766S)
Glucocorticoid receptor: MDSKESLTPGREENPSSVLAQERGDVMDFYKTLRGGATVKVSASSPSLAVASQSDSKQRRLLVDFPKGSVSDAQQPDLSKAVSLSMGLYMGETETKVMGNDLGFPQQGQISLSSGETDLKLLEESIANLNRSTSVPENPKSSASTAVSAAPTEKEFPKTHSDVSSEQQHLKGQTGTNGGNVKLYTTDQSTFDILQDLEFSSGSPGKETNESPWRSDLLIDENCLLSPLAGEDDSFLLEGNSNEDCKPLILPDTKPKIKDNGDLVLSSPSNVTLPQVKTEKEDFIELCTPGVIKQEKLGTVYCQASFPGANIIGNKMSAISAHGVSTSGGQMYHYDMNTASLSQQQDQKPIFNVIPPIPVGSENWNRCQGSGDDNLTSLGTLNFPGRTVFSNGYSSPSMRPDVSSPPSSSSTATTGPPPKLCLVCSDEASGCHYGVLTCGSCKVFFKRAVEGQHNYLCAGRNDCIIDKIRRKNCPACRYRKCLQAGMNLEARKTKKKIKGIQQATTGVSQETSENPGNKTIVPATLPQLTPTLVSLLEVIEPEVLYAGYDSSVPDSTWRIMTTLNMLGGRQVIAAVKWAKAIPGFRNLHLDDQMTLLQYSWMFLMAFALGWRSYRQSSANLLCFAPDLIINEQRMTLPCMYDQCKHMLYVSSELHRLQVSYEEYLCMKTLLLLSSVPKDGLKSQELFDEIRMTYIKELGKAIVKREGNSSQNWQRFYQLTKLLDSMHEVVENLLNYCFQTFLDKTMSIEFPEMLAEIITNQIPKYSSGNIKKLLFHQK

Test system: GRE (glucocorticoid response element)-Luciferase reporter
Experiment: GRE-luciferase reporter assay of transactivation potential of reconstructed GR alleles co-transfected into HEK 293 cells
Assay type: cell-based, human
Source text: An exemplary assay for determining the transactivation potential of a GR polypeptide is described below. The GR nucleic acid sequence encoding the GR polypeptide of interest can be cloned into a first vector (e.g., pcDNA4, Invitrogen, Carlsbad, Calif.). A second vector can be constructed to contain a reporter gene, e.g., the luciferase gene, under the control of a GRE. These two vectors can be co-transfected into a cell, e.g., a human embryonic kidney cell (HEK 293). Skilled practitioners will recognize that a number of cell types can be used to test whether a GR polypeptide is functional. The cell will then express the GR polypeptide encoded by the GR nucleic acid sequence on the first vector. […] The product of the reporter gene, e.g., luciferase, can then be detected and quantified using conventional methods. For example, when a luciferin substrate is added, luciferase will produce luminescence that can be detected and quantified. […]
The reconstructed GR allele expression plasmids described above were co-transfected with a GRE (glucocorticoid response element)-Luciferase reporter plasmid (Stratagene) using Fugene HD/6 (Roche) into HEK (human embryonic kidney) 293 cells, grown in Dulbecco's Modified Eagle Medium with 10% fetal bovine serum and 1% Penicillin/Streptomycin (Invitrogen.). […] The differences in luminescence were graphed and analyzed.

| Molecule | luciferase activity (transactivation potential), in words (FIG. 5) | fold change in luciferase activity relative to the luciferase activity induced by the reference human GR polypeptide (medium with 10% fetal bovine serum, FIG. 5, experiment repeated six times) [fold] |
| --- | --- | --- |
| B1 | very low level | – |
| B2 | – | 5.5 |
